Measured values published in patent publication US20130165328, “APPARATUS AND METHODS FOR KINETIC ANALYSIS AND DETERMINATION OF NUCLEIC ACID SEQUENCES” (ILLUMINA, INC., published 2013).

Key:
KlenTaq polymerase = KlenTaq polymerase (UniProt P19821 P19821:280-832); assay: stopped-flow observed k1; 600 nM enzyme, 100 uM dGTP, 50 mM NaCl, 2 mM MgCl2, pH 7.5; settings: label: 6-FAM on internal T; hairpin
Experimental: The pre-steady kinetic analysis of Klenow or KlenTaq polymerase for incorporating the cognate nucleotide (dGTP) was monitored following the mixing of 6-carboxyfluorescein (6-FAM) dye label hairpin-DNA template with the enzyme (600 nM) and nucleotide (100 μM) in a reaction buffer containing 50 mM Tris-HCl, pH 7.5, 300 mM NaCl (or 50 mM NaCl in the KlenTaq reaction), 0.5 mM Dithiothreitol and 5 mM MgCl₂ (or 2 mM MgCl₂ in the KlentTaq reaction) in an Applied Photophysics SX20 stopped-flow spectrometer. The 6-FAM hairpin-DNA template was: 5′-[…].[…](6-FAM) CGAG-3′ (SEQ ID NO: 5).

BSU DNA polymerase I = BSU DNA polymerase I (Bacillus subtilis, UniProt O34996 O34996:1-880, second Ser after 6xHis tag replaced by Cys (in tag)); assay: stopped-flow fluorescein quenching; correct dCTP signal rises and mismatch dATP signal falls with NaCl 62.5-375 mM; 10 mM MgSO4; settings: label: fluorescein-dT in primer, 5 bases from incorporation site; primer/template with 5' template overhang
Source text: Theoretically, it was possible to use an enzyme simulation that predicts the feasibility of correct vs. mismatch base discrimination using enzyme-DNA binding kinetics. […] Rapid mixing is generally achieved using a fast delivery and mixing system to minimize the contribution of the diffusion constants to the overall access of the polymerase to the DNA templates. To determine the validity of the theoretical predictions for base discrimination based on DNA binding kinetics, correct (dCTP) and mismatch (dATP) nucleotides were rapidly mixed with BSU polymerase and FAM labeled 19/36 mer in the presence of various NaCl concentrations with a stopped flow instrument. Pre-steady state correct and mismatch nucleotide kinetic responses of polymerase/DNA binding were made by monitoring the extent of induced fluorescence quenching response. Correct and mismatch nucleotide responses were determined from the stopped flow kinetic raw traces (FIG. 23). The traces were normalized and the maximum fluorescence change was determined and subsequently, correlated with the extent of synchronized enzyme-DNA binding. As [NaCl] was increased and the nucleotide concentration was held constant, the fluorescence change for the correct nucleotide (leftmost bar in each pair of bars in FIG. 24B) was increased, while the response for the mismatch (rightmost bar in each pair of bars in FIG. 24B) was decreased. […]

Chain of KlenTaq polymerase (P19821 280-832, one chain of several): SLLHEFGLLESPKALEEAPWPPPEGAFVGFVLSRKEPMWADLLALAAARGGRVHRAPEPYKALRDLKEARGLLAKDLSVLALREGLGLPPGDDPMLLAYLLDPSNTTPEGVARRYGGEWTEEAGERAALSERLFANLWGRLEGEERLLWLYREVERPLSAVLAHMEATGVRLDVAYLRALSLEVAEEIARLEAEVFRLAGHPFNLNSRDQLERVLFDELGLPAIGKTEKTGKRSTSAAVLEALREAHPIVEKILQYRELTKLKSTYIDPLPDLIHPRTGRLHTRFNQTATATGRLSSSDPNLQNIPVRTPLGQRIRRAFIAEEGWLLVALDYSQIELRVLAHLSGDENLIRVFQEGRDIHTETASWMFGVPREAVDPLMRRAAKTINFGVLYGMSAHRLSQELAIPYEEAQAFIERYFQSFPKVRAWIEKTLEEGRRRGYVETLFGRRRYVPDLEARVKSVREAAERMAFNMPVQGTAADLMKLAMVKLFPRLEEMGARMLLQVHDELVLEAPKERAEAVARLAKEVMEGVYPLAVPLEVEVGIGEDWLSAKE

CGTTAGTAACCTCGAGGCAACTTAGCCTCGAG (structured_DNA) [6-FAM hairpin-DNA template]
binding result (KlenTaq polymerase): binds

B1: 19/36 mer primer/template duplex (FAM-labelled) (dsDNA)
DNA 1: GCTTGCACAGGGCCTCGAC
DNA 2: CGTTAGTAAGGTCGAGGCCCTGTGCAAGC
binding result (BSU DNA polymerase I): binds
